To fix the notation:
B1: GST-TNRC6A cNLS P3 mutant (Arg1168Lys) (peptide)
chain: SGKKKRRER
notes: also called P3 TNRC6A mutant; source: E. coli BL21(DE3), purified
B2: GST-TNRC6A cNLS (residues 1164–1172 of mouse TNRC6A, corresponding to residues 1179–1187 of human TNRC6A isoform 1) (peptide)
chain: SGKKRRRER
notes: TNRC6A classical nuclear localisation signal, mouse residues 1164-1172 = human residues 1179-1187 (isoform 1; 926-934 in isoform 2); the motif is strictly conserved between mouse and human; Cloned into pGEX-6P with overlapping oligonucleotides; also called GST-cNLS; GST-NLS; source: E. coli BL21(DE3), purified
B3: GST-TNRC6A cNLS N-term mutant (1164Ser-Gly1165 substituted to prolines) (peptide)
chain: PPKKRRRER
notes: also called TNRC6A N-term mutant; source: E. coli BL21(DE3), purified

This test addresses Mouse importin-α1 lacking the IBB domain (mImpα1ΔIBB; residues 70–529) (mouse, UniProt P52293 70-529). Kind of test: ELISA; solid phase plate binding assay, no cross-linking: MaxiSorp plates coated with 25 nM GST-cNLS or GST in PBS, 0.2 mM PMSF, 2 mM DTT; serial dilutions of S-tagged mImpα1ΔIBB, 1 hr at 4°C; detected with S-protein-HRP; apparent Kd, one-site specific binding, duplicates. The note with it: both partners purified.
In the case of B1, the Kd stood at 1880 nM.

As for B2, the Kd was determined as 75.6 nM.

Regarding SGKKRRKER (source: E. coli BL21(DE3), purified) [GST-TNRC6A cNLS P5 mutant (Arg1170 to Lys)], the Kd came out at 1140 nM.

As for SGKKKRKER (source: E. coli BL21(DE3), purified) [GST-TNRC6A cNLS P3, P5 mutant (Arg1168Lys and Arg1170Lys)], the Kd was found to be 898 nM.

As for B3, the Kd came out at 19 nM.

These data come from publication PMC5570423, “Structural characterisation of TNRC6A nuclear localisation signal in complex with importin-alpha” (PLoS ONE, 2017).
